Assay results reported in CN116143909A.

Experiments:
[1] = target: HIV-1 P24抗原(购自菲鹏) (HIV-1) (UniProt P04591); experiment: indirect ELISA, P24 coated at 1 ug/ml, antibody at 125 ng/ml, goat anti-human IgG-HRP
[2] = target: HIV-1 P24抗原(购自菲鹏) (HIV-1) (UniProt P04591); experiment: indirect ELISA, P24 coated at 1 ug/ml, antibody at 250 ng/ml, goat anti-human IgG-HRP
[3] = target: HIV-1 P24抗原(购自菲鹏) (HIV-1) (UniProt P04591); experiment: indirect ELISA, P24 coated at 1 ug/ml, antibody at 62.5 ng/ml, goat anti-human IgG-HRP
[4] = target: HIV-1 P24抗原(购自菲鹏) (HIV-1) (UniProt P04591); experiment: indirect ELISA, P24 coated at 1 ug/ml, antibody at 31.25 ng/ml, goat anti-human IgG-HRP
[5] = target: HIV-1 P24抗原(购自菲鹏) (HIV-1) (UniProt P04591); experiment: indirect ELISA, P24 coated at 1 ug/ml, antibody at 15.625 ng/ml, goat anti-human IgG-HRP
[6] = target: HIV-1 P24抗原(购自菲鹏) (HIV-1) (UniProt P04591); experiment: indirect ELISA, P24 coated at 3 ug/ml, supernatant of transiently transfected CHO cells diluted 1000-fold, goat anti-human IgG-HRP

| Molecule | OD450 (ref 630 nm) [1] | OD450 (ref 630 nm) [2] | OD450 (ref 630 nm) [3] | OD450 (ref 630 nm) [4] | OD450 (ref 630 nm) [5] | OD450 (ref 630 nm) [6] |
| --- | --- | --- | --- | --- | --- | --- |
| 对照抗体 (antibody) | 1.28 OD | 1.57 OD | 0.756 OD | 0.537 OD | 0.337 OD | – |
| 6F13RMb1 (antibody, human IgG1, kappa, V domains shown) VH: QVQLVQSGAEVKKPGSSVKVSCKASGGTFSSYAISWVRQAPGQGLEWMGGSIPIFGTTHYAQKFQGRVAIIVDESTSTSYMELSSLRSDDTAAYYCARAATAIFGVPRNNFYAMEVWGQGTTVTVSS VL: DIVMTQSPLSLSVTPGEPASISCRSSQSILHSNGYNYLDWYLQRPGQSPKLLIYIGSTRASGVPDRFSGSGSGTDFTLKISRVEAEDVGVYYCMQAVQTFFGPGTKVDLKR | 1.42 OD | 1.52 OD | 1.03 OD | 0.673 OD | 0.455 OD | > 1 OD |
